Experimental data taken from doi:10.1101/2025.09.11.675682 (2025).

T1: LAT 125-178 (Homo sapiens, UniProt O43561)
T1 chain: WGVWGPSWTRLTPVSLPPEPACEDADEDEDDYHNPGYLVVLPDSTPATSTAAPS

T2: SLP-76 159-533 (Homo sapiens, UniProt Q13094)
T2 chain: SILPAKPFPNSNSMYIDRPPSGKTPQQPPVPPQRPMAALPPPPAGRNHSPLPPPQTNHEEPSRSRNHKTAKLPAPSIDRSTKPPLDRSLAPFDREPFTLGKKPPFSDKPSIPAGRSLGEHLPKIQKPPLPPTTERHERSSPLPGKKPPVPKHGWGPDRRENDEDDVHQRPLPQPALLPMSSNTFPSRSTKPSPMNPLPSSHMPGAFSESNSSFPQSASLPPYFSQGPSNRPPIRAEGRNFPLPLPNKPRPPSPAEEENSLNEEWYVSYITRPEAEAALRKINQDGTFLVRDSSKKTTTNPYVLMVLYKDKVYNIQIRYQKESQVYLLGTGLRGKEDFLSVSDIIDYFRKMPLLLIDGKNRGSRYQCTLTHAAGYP

B1: PLC-γ1 (Phospholipase C-γ1), 1–1219 (enzyme)
chain: MAGAASPCANGCGPGAPSDAEVLHLCRSLEVGTVMTLFYSKKSQRPERKTFQVKLETRQITWSRGADKIEGAIDIREIKEIRPGKTSRDFDRYQEDPAFRPDQSHCFVILYGMEFRLKTLSLQATSEDEVNMWIKGLTWLMEDTLQAPTPLQIERWLRKQFYSVDRNREDRISAKDLKNMLSQVNYRVPNMRFLRERLTDLEQRSGDITYGQFAQLYRSLMYSAQKTMDLPFLEASTLRAGERPELCRVSLPEFQQFLLDYQGELWAVDRLQVQEFMLSFLRDPLREIEEPYFFLDEFVTFLFSKENSVWNSQLDAVCPDTMNNPLSHYWISSSHNTYLTGDQFSSESSLEAYARCLRMGCRCIELDCWDGPDGMPVIYHGHTLTTKIKFSDVLHTIKEHAFVASEYPVILSIEDHCSIAQQRNMAQYFKKVLGDTLLTKPVEISADGLPSPNQLKRKILIKHKKLAEGSAYEEVPTSMMYSENDISNSIKNGILYLEDPVNHEWYPHYFVLTSSKIYYSEETSSDQGNEDEEEPKEVSSSTELHSNEKWFHGKLGAGRDGRHIAERLLTEYCIETGAPDGSFLVRESETFVGDYTLSFWRNGKVQHCRIHSRQDAGTPKFFLTDNLVFDSLYDLITHYQQVPLRCNEFEMRLSEPVPQTNAHESKEWYHASLTRAQAEHMLMRVPRDGAFLVRKRNEPNSYAISFRAEGKIKHCRVQQEGQTVMLGNSEFDSLVDLISYYEKHPLYRKMKLRYPINEEALEKIGTAEPDYGALYEGRNPGFYVEANPMPTFKCAVKALFDYKAQREDELTFIKSAIIQNVEKQEGGWWRGDYGGKKQLWFPSNYVEEMVNPVALEPEREHLDENSPLGDLLRGVLDVPACQIAIRPEGKNNRLFVFSISMASVAHWSLDVAADSQEELQDWVKKIREVAQTADARLTEGKIMERRKKIALELSELVVYCRPVPFDEEKIGTERACYRDMSSFPETKAEKYVNKAKGKKFLQYNRLQLSRIYPKGQRLDSSNYDPLPMWICGSQLVALNFQTPDKPMQMNQALFMTGRHCGYVLQPSTMRDEAFDPFDKSSLRGLEPCAISIEVLGARHLPKNGRGIVCPFVEIEVAGAEYDSTKQKTEFVVDNGLNPVWPAKPFHFQISNPEFAFLRFVVYEEDMFSDQNFLAQATFPVKGLKTGYRAVPLKNNYSEDLELASLLIKIDIFPAKENGD
B2: PLC-γ1 1-1219 (protein)
chain: B1 chain
modifications: pY132, pY171
B3: Gads 1-322 (protein)
chain: MEAVAKFDFTASGEDELSFHTGDVLKILSNQEEWFKAELGSQEGYVPKNFIDIQFPKWFHEGLSRHQAENLLMGKEVGFFIIRASQSSPGDFSISVRHEDDVQHFKVMRDNKGNYFLWTEKFPSLNKLVDYYRTNSISRQKQIFLRDRTREDQGHRGNSLDRRSQGGPHLSGAVGEEIRPSMNRKLSDHPPTLPLQQHQHQPQPPQYAPAPQQLQQPPQQRYLQHHHFHQERRGGSLDINDGHCGTGLGSEMNAALMHRRHTDPVQLQAAGRVRWARALYDFEALEDDELGFHSGEVVEVLDSSNPSWWTGRLHNKLGLFPA
B4: Gads 1-322 (protein)
chain: B3 chain
modifications: pY132, pY171

Legend:
Experiment in all cases: ITC
[1] = biological target: SLP-76 PRR peptide (aa 185–200), high affinity mutant (UniProt Q13094 185-200)
LAT 125-178 = biological target: T1, LAT 125-178
[2] = biological target: B1
SLP-76 159-533 = biological target: T2, SLP-76 159-533

B1 showed a Kd [1] of 1000 nM.

Work on B2 yielded a Kd (LAT 125-178) of 84 nM.

QPPVPPQRPMAALPPP [SLP-76 PRR peptide (aa 185–200), wild type] showed a Kd [2] of 2360 nM.

Work on B3 yielded a Kd (SLP-76 159-533) of 3.6 nM.

In the case of B4, the Kd (LAT 125-178) is reported as 213 nM.
